Data reported in the supplement of paper PMC7877785.
± gives the uncertainty stated by the source.

Assay: self-splicing fitness, log relative to wild type (ln ratio); higher = more splicing; Tetrahymena group I intron in knt gene, E. coli kanamycin selection, DiMSum; sequences stand for … in CUCUCU…GGAGGGAAAAGUUAUCAGGCAUGCACCUGGUAGCUAGUCUUUAAACCAAUAGAUUGCAUCGGUUUAAAAGGCAAGACCGUCAAAUUGCGGGAAAGGGGUCAACAGCCGUUCAGUACCAAGUCUCAGGGGAAACUUUGAGAUGGCCUUGCAAAGGGUAUGGUAAUAAGCUGACGGACAUGGUCCUAACCACGCAGCCAAGUCCUAAGUCAACAGAUCUUCUGUUGAUAUGGAUGCAGUUCACAGACUAAAUGUCGGUCGGGGAAGAUGUAUUCUUCUCAUAAGAUAUAGUCGGACCUCUCCUUAAUGGGAGCUAGCGGAUGAAGUGAUGCAACACUGGAGCCGCUGGGAACUAAUUUGUAUGCGAAAGUAUAUUGAUUAGUUUUGGAGUACUCGUGGUCG
Method in brief: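 DiMSum derived fitness as the error-weighted combination of fold changes across replicates, kanamycin versus no kanamycin, normalised to wild type. E. coli BL21(DE3) held the library, which randomised all eight P1ex-region intron nucleotides within the knt kanamycin-resistance gene on pET-22b(+). Six replicate transformations grew overnight at 37°C or 30°C on LB agar with or without 25 μg/mL kanamycin, also containing 100 μg/mL carbenicillin, 50 μM IPTG and 0.2% rhamnose, and pooled colonies were amplicon-sequenced on an Illumina HiSeq 2500.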

Row | Sequence | self-splicing fitness (ln) (30 °C) | self-splicing fitness (ln) (37 °C)
1 | UAUUAGCAAUAUUACGAUCC | -3.56 ± 0.38 | -1.76 ± 0.25
2 | UCAUAGCAAUAUUACGACAG | -1.49 ± 0.13 | -1.26 ± 0.15
3 | CAUAAGCAAUAUUACGGAGA | – | -3.12 ± 0.38
4 | AUACAGCAAUAUUACGUAGU | -1.34 ± 0.067 | -0.206 ± 0.083
5 | GAUAAGCAAUAUUACGCUUU | -1.7 ± 0.14 | -2.17 ± 0.21
6 | UACGAGCAAUAUUACGCCCC | -2.16 ± 0.44 | –
7 | UUGCAGCAAUAUUACGAUUA | -0.176 ± 0.12 | 0.339 ± 0.087
8 | CAAAAGCAAUAUUACGUAUG | -2.89 ± 0.098 | -2.22 ± 0.13
9 | CAUAAGCAAUAUUACGCCGG | -0.252 ± 0.13 | -0.546 ± 0.2
10 | UAACAGCAAUAUUACGCCUA | -0.308 ± 0.064 | 0.598 ± 0.083
11 | UCGAAGCAAUAUUACGCCCU | -2.45 ± 0.2 | -1.7 ± 0.13
12 | UUGGAGCAAUAUUACGUUUC | -3.77 ± 0.43 | -3.44 ± 0.42
13 | CGCGAGCAAUAUUACGCAGA | -1.75 ± 0.22 | -1.77 ± 0.18
14 | UUAGAGCAAUAUUACGAUUU | -2.08 ± 0.18 | -1.88 ± 0.26
15 | UACAAGCAAUAUUACGGCAU | -1.49 ± 0.068 | -0.705 ± 0.072
16 | UAGGAGCAAUAUUACGUAGU | -3.13 ± 0.3 | -1.81 ± 0.3
17 | ACAUAGCAAUAUUACGGACG | -1.32 ± 0.1 | -0.653 ± 0.14
18 | AUAUAGCAAUAUUACGGGUA | -2.09 ± 0.25 | -0.788 ± 0.19
19 | GUGUAGCAAUAUUACGCGGA | – | -1.54 ± 0.36
20 | CAUGAGCAAUAUUACGCAUU | -2.88 ± 0.19 | -2.03 ± 0.24
21 | CACAAGCAAUAUUACGAAUU | -3.63 ± 0.26 | -2.75 ± 0.21
22 | UUUCAGCAAUAUUACGUCGC | -3.67 ± 0.2 | -2.73 ± 0.24
23 | UCUUAGCAAUAUUACGCGUG | -3.05 ± 0.18 | -2.21 ± 0.15
24 | GGAAAGCAAUAUUACGACUU | -0.349 ± 0.1 | -0.0565 ± 0.11
25 | CUAGAGCAAUAUUACGUGCA | -3.88 ± 0.21 | -2.18 ± 0.19

Row | Sequence | self-splicing fitness (ln) (30 °C) | self-splicing fitness (ln) (37 °C)
26 | UUGCAGCAAUAUUACGACAA | -0.619 ± 0.087 | 0.212 ± 0.1
27 | GGAAAGCAAUAUUACGGCUG | -0.471 ± 0.12 | -0.348 ± 0.17
28 | AACAAGCAAUAUUACGUUAA | -2.55 ± 0.15 | -1.67 ± 0.14
29 | GUAUAGCAAUAUUACGAUGU | -1.07 ± 0.12 | -0.00633 ± 0.17
30 | UCCGAGCAAUAUUACGCUUU | -2.64 ± 0.26 | -3.01 ± 0.47
31 | AUUCAGCAAUAUUACGAGAU | -2.7 ± 0.17 | -0.722 ± 0.13
32 | CAAUAGCAAUAUUACGAACG | -0.128 ± 0.053 | 0.24 ± 0.07
33 | ACUAAGCAAUAUUACGAGCG | -0.928 ± 0.084 | 0.115 ± 0.14
34 | AGGGAGCAAUAUUACGUCAC | -2.07 ± 0.24 | -2.69 ± 0.26
35 | UCACAGCAAUAUUACGCCCG | -0.978 ± 0.12 | -0.555 ± 0.14
36 | GUUUAGCAAUAUUACGGAAA | -2.38 ± 0.37 | -2.07 ± 0.28
37 | AGACAGCAAUAUUACGCGAG | -1.22 ± 0.091 | -0.818 ± 0.094
38 | UCUCAGCAAUAUUACGCCUA | -2.3 ± 0.19 | -1.22 ± 0.2
39 | CUGGAGCAAUAUUACGUAGG | -1.78 ± 0.071 | -1.4 ± 0.095
40 | GCCCAGCAAUAUUACGUACC | -1.05 ± 0.12 | 0.0161 ± 0.17
41 | GAACAGCAAUAUUACGUGCG | -0.551 ± 0.065 | -0.41 ± 0.074
42 | CAGGAGCAAUAUUACGGGUU | -4.36 ± 0.25 | -2.99 ± 0.19
43 | UGGAAGCAAUAUUACGCCCC | -1.69 ± 0.41 | -1.36 ± 0.35
44 | GGUCAGCAAUAUUACGACGG | -0.435 ± 0.14 | -0.175 ± 0.16
45 | CGCGAGCAAUAUUACGCAGC | -3.62 ± 0.46 | -1.99 ± 0.34
46 | GCGGAGCAAUAUUACGAUAU | -2.17 ± 0.14 | -2.02 ± 0.18
47 | ACGGAGCAAUAUUACGCAUC | -2.6 ± 0.17 | -2.03 ± 0.21
48 | ACUGAGCAAUAUUACGGCUC | – | -1.73 ± 0.48
49 | GCCUAGCAAUAUUACGACAU | -2.109 ± 0.015 | -1.02 ± 0.033
